Test results published in patent publication US20210268096A1 (TRELLIS BIOSCIENCE, published 2021).

T1: recombinant RSV G[161-197] (respiratory syncytial virus (RSV), UniProt P03423 161-197)
T1 chain: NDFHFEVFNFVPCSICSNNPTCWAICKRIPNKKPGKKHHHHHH

B1: mAb 2D10 (antibody, V domains shown)
VH: QVQLVQSGPEVKKPGASVRLSCKASGYVFTNYGVSWVRQAPGQGLEWMGWSSPYNGNTYYAQKLKARVTMTTDTSTNTAYMELRSLRSDDTAVYYCGRDMLGVVQAVAGPFDSWGQGTLVTVSS
VL: DTPMTQSPSSVSASVGDRVTISCRASQGISNSLAWYQQKLGKAPQLLIYAASSLQSGVPSRFSGSGSGTDFTLTISSLQPEDFATYYCQQTNTFPFTFGPGTKVEVRR
B2: mAb 3D3 (antibody, V domains shown)
VH: EEQLVESGGGLVQPGRSLRLSCVGSGLRFEEHAMHWVRQAPGRGLEWVSGISWNSGSVGYADSVKGRFTTSRDNAKDILFLEMNTLRSEDTALYFCAIMVATTKNDFHYYKDVWGKGTTVTVSS
VL: QIVLTQSPATLSLSPGERATLSCKASQSVSNHLAWYQQKPGQAPRLLIYETSNRATGIPPRFSGSGSGTDFTLTISSLEPEDFAVYYCQQRNNWYTFGQGTKLEIK

Columns and labels:
[1] = biological target: human chemokine receptor CX3CR1 (human) (UniProt P49238); assay: cell-based or functional assay
[2] = biological target: T1, recombinant RSV G[161-197]; assay: cell-based or functional assay

Sequence of human chemokine receptor CX3CR1 (human) (P49238 whole entry): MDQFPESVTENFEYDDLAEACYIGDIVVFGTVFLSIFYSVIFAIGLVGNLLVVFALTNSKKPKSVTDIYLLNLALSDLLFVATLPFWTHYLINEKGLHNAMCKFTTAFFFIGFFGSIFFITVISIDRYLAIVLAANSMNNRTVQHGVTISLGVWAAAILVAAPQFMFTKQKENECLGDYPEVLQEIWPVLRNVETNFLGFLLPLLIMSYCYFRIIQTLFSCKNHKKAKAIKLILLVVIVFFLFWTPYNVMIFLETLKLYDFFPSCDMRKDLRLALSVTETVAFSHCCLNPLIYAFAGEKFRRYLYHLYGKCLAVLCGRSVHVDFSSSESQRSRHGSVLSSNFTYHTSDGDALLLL

| Molecule | chemotactic index (fold-increase in THP-1 cell migration vs serum-free media) (fold (chemotactic index)) [1] | chemotactic index of 5 nM RSV G[161-197] pre-incubated with 25 nM mAb [2] |
| --- | --- | --- |
| recombinant RSV G[161-197] (from UniProt P03423 161-197) (peptide) | 4.2 | – |
| RSV G ectodomain (G[ecto]) (from UniProt P03423 64-298) | 3.9 | – |
| B1 | – | 1 fold (chemotactic index) |
| B2 | – | 1.5 fold (chemotactic index) |
